# Experimental data from US20240026407A1, “MODIFICATION OF SAPONINS” (GLAXOSMITHKLINE BIOLOGICALS SA, priority 2020, published 2024).
# B1: 1031 (protein, listed as Pedobacter heparinus)
# chain: MTNFSCIAKRITSFLMLFLSCSPFITAQVKSGTIVYPRGSFDADWISCPDVNLKSYGVFHMRKVFELTSRPKQFVVHVSGDQRYRLFANGTPVCFGPARGDLRNWNYETIDIAPYLKTGKNVLAVQLWNMGSGAPAAQLTYQTGFILQGNSNAEQMVNTNNSWRIIQNKGYFPEPFPPSRLASYIVGSCDSVVFKNYPFGWQNINYDDKSWLSPVSETKPRYYTEKRSLIPRSIPMMEEKIEPITGIVRILGTDTSAILNSFNKNGSITIPANTKATILFDRKTLTTAYPEITFSKGSNGKVKITYAESLFNSENLKGNRNEIKNKTIKGYYDVFLPDGGTAHTFRPLWTRTFRYIQFDITTGSEPMVIDKMQSVFTAYPFKEHAFFTSNDSTLHEIWDVSWRTARLCANETYMDCPYYEQLQYVGDTRIQALISLYVSGDDRLMRNAIEQFHQSQIPDGLTMDAYPAGGGKFIPPFSLFWIAMLHDFYWYRDDEKFIEKYLIPMEAILKWFEYRLDNNSGMLGKTGYWNFVDWSFSPKGIPSGGLEGNSSILSLQYVYALEQAAEIFAHAKQQQKADYYHNLGQKIKRAVYARCYDINNRLLADSPERKAFSQHANIWSIITDCIPFKDQEATMERIMNDSTLTATSLYYRFYYTKAMKKAGLGSLYLSSLRPWKQMLDLGFSTFPETLAPNVRSDCHAWSASPCYDFLATVCGIEPGTPGFATVRISPNLGNLKAVSGELPHPLGPIKVSYKKIKEGSYSAHIELPANLNGIFISKDQKVILTGGKQEITFKYE
# B2: 1049 (protein, listed as Chitinophaga pinensis)
# chain: MKQCMGIWLLFLSLQTWGQQLQVVHLRTDNKTNPLGCQLSPRLSWQLSASYNNCVQQAYQLQFSDDSTTLNSKKHTGKHVESADPFLTLPAAFAGITLLPAHTYYWRVQVWDKAGRPSGWSEVASFINALNGPADWKGAKWIGYEDVVDSMRVVPGVHNGTDKFYQKHKARQRTIVPLFRKAFSVQGKVKSALLYISGLGQYEASLNGVRLGDNFLAPGWTHYDETALYNTYDLTNVLQAGENALGVIVGNGFFNVNKERYRKLSVVYGMPRMICRLLITYENGKTTNIVSGTDWRTSASPITFTSIYGGEDYDAGKEQSGWDQPGFNDTEWKPAIVVKATEKRLLPEEDYPVKVMEVLPVRRITQPQPAVYMYDFGQNASGIIGLKIKGKKGQTVKLIPAELTNDKQLANQKATGSPYYFSYTLKGDGIETWQPRFSYYGFRYVQVEGAAPDTAVHTGDVPEIISLELLHTRNAAPVNGTFSCSNDLFNRIHTLILWAIKSNMQSVLTDCPHREKLSWLEQDYLMGNAIQYSYDIDLLYRKLIRDMKEAQTGEGLVPDIAPEFVFFDDHGFGFRDSPEWGSAGVIVPWLHYRWYGDKTVISDAYPMVKKYVAYLGAKAQHNILSYGLGDWFDNGPQRPGVAQLTPKGVTATAIYYYDLVLAGNMADLLGKTAEAKAFRVQADKVKATFNGEYFHTGTKVYSTGSQTAMAMPLCVGLVEEQYRQAVFSNMVDSIRQQRNQLTAGDIGFHFLVQALQEGGASDLLYEMNNRSDVPGYGFQLAKGATTLTESWAALEQVSNNHLMLGHLLEWFYTGLGGITQQAGSIGYKQLQICPEVVGDITWVKTSYNTPYGTVRSEWEKKDGGMLFRISIPPNSNAIVKLPAKREGRITADGKPLNNQDLSFEKERVVMYLGSGDYEFSTFK
# B3: 1040 (protein, listed as Rhodopirellula baltica)
# chain: MNEDGWQDRRQLPRFSWIRLAKGRSAELSSIPVRPLKMLLSILFLTVITVAASSSVSALEPQRLRCEYLENPTGIDAARTRLSWQVTSDQRGQSQIAYRLLVASSEEQLGSGVGDLWDSGKVKSDQTLFVEYAGKPLSSRQECFWKVQVWDGAGNATESEVASWSMGLLDQSDWSAEYISYRDDSPIHTDLSTLHLPAARQYRKEFSASKSIKRATVYATALGIYELHLNGQRVGDASFAPGWTDYRKRAYYNTYDVTNLVREGDNAIGAWVADGWYSGYVGFGLLTGMGPEKNGRSTYGKTPSFMSQLEIEFEDGTKQTIGTDTTWKVTGEGPIQEADLLMGESYDARREMVGWSEPGFDHDHWDDAILAKQNGQVTAAFYEFRNPTTTGAGVKKVGEQRDFGFKRPELEAFPGVPVRVTQEIPAKTVSKLEPGTFVFDLGQNFAGTIRLKIKGREGERIQLRYGEMLHPDGRLMTENLRKARATDYYTCKGNPDGEFYQPRFTFHGFQFVEVKRLSDSSEDAGKATDSQNVQTPPLDMVTGLVLHSDTPMASTFECSDPMVNQLFKNVLWTQRANFLDLPTDCPQRDERMGWTGDAQAYVATAAYNADIGAFYTKWLRELMESQRPSGAFPGYAPYPFQHGWDFGTAWADAGVICPWTIWQFYGDTRVIDDCWEPMTRFMRWRKQTSVNDLGVSHGNAWGDWLSQGEETPLDYIDTVYFAISARMMAEMAEATGRDEEAKLYREQRAATQAAFQAKYLNEDGSITVRTQTAQALALFADLVPAEQREATGKYLAKRLSENGNHMATGFLGTRPLLPVLSGSGQHDLATFLLQSREFPSWGYEISNGATTIWERWDSYTKEDAFGRHNAAMNSFSHYAFGAVCEWMFATLAGIQSDGPGFKRIVIRPTPPSPGSNAMHEPINWVKASYESIRGTIRSEWKMVDGRFHLNVTIPANTTATVYLPTNDANSITESGNALADTANVSLLRKETNVVALTVHSGSYEFLASSGIVPAKVSLKSSEPKDNSINPGEIDLTDATKLESWDFRNPQDLAKWGERKSVDIEQRNGSAYLVATGDDSQMAVRMTKPLEGKLVIELRASPSQNSTSQFYWAIPGRGFNGQQQTKRLLRQSDAVNAYLFAIPDALTVGKLRFDPFATYDEYANAGEMMIESISIYRLVD
# B4: 1078 (protein, listed as Flavobacterium johnsoniae)
# chain: MFQKKHLFFILLLASIVSAQEVHKKETNFQPTLESSKPWVYWYWMKSAYSKPGITADLEAMKQAGIAGAYLMTIKGPANPPLIDPPVLQLTPEFWDMIHWAFKEADRLGLKLAFHGADGFAVAGGPWITPEMSMQKIVWSTTEILGGKKVTSKLPVPAHYKDYYKNIATFAIPIKEYEITSQMQLPKVTTSNNTDASFLADPKKDENFKFADAGWIQYEFAQPFTCKSIVIETKGRDFQAQRLIVEVSDDGVNFRFHERMIAPRHGWQDMDFPNTHTITPVTAKYFRFVCDPKGTEPGAEDLDFAKWKQNLKVSKITLSNQSLINNYEGKSGAIWRLTPQTTEKEIPNSDAFKKSEIINISNFVDADGNLNWKAPKGKWKILRMGHTSTGHENATGGAGKGLEVDKFNPELIRFQLDHWFGEAVRSAGPELTSKVLEILHFDSWECGSQNWSSVFQTEFKKRRGYDLVEYLPVMAGIPVESADFSEKVLYDIRKTIADLVADNFYGTIAQIAKEYNVKLSAENVAPVVTSDALLHYKYVDYPSGEFWLKSPTHDKPFDMVDAISGGHIYGKDIIQAESFTALRMDWDEHPGNLKTTADRNYALGINRLFYHVFVHNPWTDRKPGMTLDDIGTFFQRDQTWWKPGKAWFDYCQRVQFQLQKGKPIIDLAVFSGEDFPSRSFVPDRLVPFIPNVFGKERLESEKIRLENEGQPTAKMPKEVTYSKNITDLSQWINPLNGYQYDSFNADVLINRAKVINGKISFEGGIEYGALFFPGSHKMAPNKMLSLASAEKILQLLKDGATIFVDEKPNLQPGVQSEADQKKWQNVIDEIWNNTNSATWKIGKGTVIKLPYLGNDFASIGISQDVYFTNLNRVDSETLAWAHRKSDTEDIYFISNQKAEKRTFDASFRILGKVPQWYNPVTDKTSALDNWKIENGRTIVSITLDANESGFVMFKEETKEILAKGRSSEFEKVQTLDENWKLQFDTEFKGPKEVVKINKLFDWSTSENDQIKYYSGTVVYKKEFIWKGKDSSKTWLDLGEISNIAEIKINGKDCGALWTFPFKTDISKALQKGKNTIEIKVTNTWANRLIGDQKLPKEERLTWTTAPFRLEGEPLLKAGLLGPVIIVKEK
# B5: 995 (protein)
# chain: MILLGALSLASSTFAQTWIWYPGDYEIWLGNQMNNRRTERGAFFPPFWKTDSHYVVVEFSKVLNLSEPEEVFIAAEGTYNVKLDGKLQFGMPETLLLPAGKHSLNIKVWNQATPPTIYVKGKTVNSDSSWRVTYEDKEWIDESGKASDTSATIYMDAGCWNFDGATQRPSQFSLMREPQQPVAKTEQPEGGILYDFGKETFGFITLKNLSGKGKIDLYYGESPEEAKDKAYCETLDKLLLEPGQITDLAIRSTSPLHHSDNEYTLENSKAFRYVYITHEPEVQIGEVSMQYEYLPEEYRGNFRCNDEELNCIWEVGAYTMHLTTREFFIDGIKRDRWVWSGDAIQSYLMNYYLFFDSESVKRTIWLLRGKDPVTSHSNTIMDYTFYWFLSVYDYYMYSGDRHFVNQLYPRMQTMMDYVLGRTNKNGMVEGMSGDWVFVDWADGYLDKKGELSFEQVLFCRSLETMALCADLVGDKDGQQKYEKLASALKAKLEPTFWNNQKQAFVHNCVDGRQSDAVTRYANMFSVFFDYLNADKQQAIKQSVLLNDEILKITTPYMRFYELEALCALGEQETVMKEMKAYWGGMLKAGATSFWEKYNPEESGTQHLAMYGRPYGKSLCHAWGASPIYLLGKYYLGVKPTKEGYKEFAVSPVLGGLKWMEGTVPTPNGDIHVYMDNKTIKVKATEGKGYLTIQSRRQPKANMGTVEKVSEGVWRLWIDSPEERIVTYRL
# modifications: Bacteroides thetaiotaomicron
# Assay: Experiment 6-1: specificity of rhamnosidases towards other rhamnose residues (C3 saccharide rhamnose, C28 saccharide rhamnose)
# Assay type: biochemical, Quillaja saponaria
# Conditions: TBE 2%, pH 7.5, 30 degC, 18 h; LCMS/MS; negative controls 0.18, 0.17
row,Molecule,ratio PP/QS-21
1,B1,0.17
2,B2,0.18
3,B3,0.18
4,B4,0.16
5,B5,0.17

# Assay: Experiment 6-1: screening of rhamnosidases for derhamnosylation of saponins in treated bark extract (2%), QS-17 2296 to QS-18 2150 (PAR %)
# Assay type: biochemical, Quillaja saponaria
# Conditions: TBE 2%, pH 7.5, 30 degC, 18 h; TIC peak area ratio percent of rhamnosylated starting saponin to derhamnosylated product, LCMS/MS; negative controls 4.876, 5.225
row,Molecule,QS-17 (PAR %) [%]
1,B1,5.218
2,B2,5.211
3,B3,5.244
4,B4,5.218
5,B5,5.223

# Assay: Experiment 6-1: screening of rhamnosidases for derhamnosylation of saponins in treated bark extract (2%), desglucosyl-QS-17 2134 to QS-21 1988 (PAR %)
# Assay type: biochemical, Quillaja saponaria
# Conditions: TBE 2%, pH 7.5, 30 degC, 18 h; TIC peak area ratio percent, LCMS/MS; negative controls 2.719, 2.158
row,Molecule,Peak75 (PAR %) [%]
1,B1,2.367
2,B2,2.417
3,B3,2.372
4,B4,2.153
5,B5,2.545

# Assay: Experiment 6-1: screening of rhamnosidases for derhamnosylation of saponins in treated bark extract (2%), QS-17 2310 to QS-18 2164 (PAR %)
# Assay type: biochemical, Quillaja saponaria
# Conditions: TBE 2%, pH 7.5, 30 degC, 18 h; TIC peak area ratio percent, LCMS/MS; negative controls 3.061, 2.429
row,Molecule,Peak57 (PAR %) [%]
1,B1,3.096
2,B2,2.271
3,B3,3.084
4,B4,2.788
5,B5,3.002
